Laboratory results taken from patent US20240352438A1, “MEANS AND METHODS FOR DETOXIFYING OCHRATOXIN A” (DSM Austria GmbH, priority 2021, published 2024).

Assays:
[1] = OTA detoxification activity assay (specific activity, fluorescence reduction ex/em 390/450 nm); format: biochemical; details: 37° C., 200 ng/mL OTA, 100 mM sodium phosphate buffer
Procedure, shortened: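 Recombinant enzyme preparation with 200 ng/mL OTA in 100 mM sodium phosphate, at pH 6.0 and pH 7.5, 37° C. Degradation followed as the fall in fluorescence at ex/em 390/450 nm. Specific activity taken from the initial linear slope; one unit degrades 1 μmol OTA per min at a starting OTA of […].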

[2] = Thermostability assay: residual OTA detoxification activity after 10 min incubation at 45-99° C. (T50); format: physicochemical; details: for T50 (temperature at which 50% of the initial activity was maintained): 0.1 mg/mL protein in 20 mM Tris-HCl pH 7.5, residual OTA detoxification activity relative to 4° C. reference aliquot; for T50 (temperature range in which 50% of the initial activity was lost after the incubation): 0.1 mg/mL in 20 mM Tris-HCl buffer pH 7.5
Description: Stability was determined in terms of thermostability. Notwithstanding, a person having skill in the art is aware that stability towards high temperature (e.g. more than 30° C.) often correlates with stability towards other non-standard conditions such as stability towards acidic or basic pH (e.g. below pH 6.5 or above pH 7.5, respectively), towards elevated salt concentrations, organic solvents or drying.
To determine the kinetic stability of the produced enzymes, thermostability assays were performed. To this end, purified protein samples were diluted to a protein concentration of 0.1 mg/mL in 20 mM Tris-HCl buffer pH 7.5 and aliquots were incubated in a thermocycler for 10 min at either 45, 55, 65, 75, 80, 85, 90, 95 or 99° C. After this incubation, the aliquots were stored at 4° C. until further analysis. A reference aliquot was stored at 4° C. throughout the incubation. Subsequently, all aliquots were assayed for residual OTA detoxification activity using the assay described in Example 3. Residual enzyme activities were calculated relative to the reference aliquot. The temperature range in which 50% of the initial activity was lost after the incubation (T50), in relation to the reference aliquot was determined.

B1: 19 (protein)
chain: MLSLLAANACVADAAPAASRTIVLRAARMFDGASGKLVEHPQLTIVGNKIVRIAQSDNAEVPASAEVIDLGDATLLPGFIDAHVHLSGQSSDNWYGDFFDNMMRFPAEQALYGAYYACITLEAGFTSVRDLGSTDWVALGLRNAIDAGKVPGPRMLVSNYAVGSTGGHADQDPIPPHRLPLAGPLQGVCNGPEECRAAVRYQIKYGANVIKFMPSGGVLSLSDPVDAPELSQDEMNAVIGESHAWGRKVAAHAHGDKAAKMAVAAGVDSIEHGSFIEDDTLRAMKAKNVYLVPTISAIAHVEEKIATFPPVIAEKGRAAAAHSRQTFRHAVQIGVPIALGTDAGVGAHGTNAREFRYMVENGLTPVQSLLAGTANAARLLGIIDRVGTLEAGKLADIVAVPGNPVADITVTERPVFVMKDGVVVRRGAVR
modifications: polypeptide 5
Q: What does the source list for B1?
A: Specific OTA detoxification activities in U/g at pH 6.0 [1]: 8.72 U/g; Specific OTA detoxification activities in U/g at pH 7.5 [1]: 10.91 U/g; T50 (temperature at which 50% of the initial activity was maintained) [2]: 65 °C

B2: 20 (protein)
chain: MTTRFRILTAVLSLLAASACAADAAPATPHTVVLRAARMFDGASGKLVERPQLTIVGNKIVRIAQADKAEVPAGAEVIDLGDSTLLPGFIDAHVHLSGQGSDNWYGDFFDNMMRFPAEQALYGAYYARITLEAGFTSVRDLGSTDWVALGLRNAIDAGKVPGPRMLVSNYAVGSTGGHADQDPIPPHKLPLAGPLQGVCNGPEECRAAVRYQIKYGANVIKFMPSGGVLSLSDPVDAPELSQDEMNAVIGESHAWGRKVAAHAHGDKAAKMAVAAGVDSIEHGSFIEDDTLRAMKAKNVYLVPTISAIAHVEEKIGTFPPVIAEKGRAAAAHLRQTFRHAVQIGVPIALGTDAGVGAHGTNAREFRYMVENGLTPAQSLLAGTSNAARLLGTIDKVGTLEAGKLADVVAVPGNPIADITVTERPVFVMKDGVVVRRGAVR
modifications: polypeptide 6
Q: What does the source list for B2?
A: Specific OTA detoxification activities in U/g at pH 6.0 [1]: 49.73 U/g; Specific OTA detoxification activities in U/g at pH 7.5 [1]: 100.52 U/g; T50 (temperature at which 50% of the initial activity was maintained) [2]: <45 °C

B3: SEQ ID NO: 348: another exemplary OTA-hydrolyzing polypeptide, amidohydrolase family; mature, processed species of SEQ ID NO: 349 (protein)
chain: RAHIVEPVAIKAKRVFTGVTGAVIENGVVIVDDKGRIAAISRVVPKGAKVIDLGDATLLPGFIDAHVHLSGEMSDNWYKDFRDRMLRFPAEQAHYAARNAKKTLMAGFTTVRDVGSADWQASALRNAVNAGVIVGPRILASNYAIGATGGHGDGTPFPPDRVAPDGPLKGVCNGADQCRAAVRYQIKYGADVIKFMPSGGVLSLSDPVDVPELTQDEINAIISEAHAWHRKVAAHAHGDEAARMAVKAGVDSIEHGTFLTDETLKQMKKQGTYLVATLFAGEWVGMKADNYPPAVAEKARAAAAQMQRMFARAVKIGVPIAFGTDAGVEPHGLNAHEFSLMVKNGMSPKAALLAATREAAKLLGVIDRTGTLEPGKAADMVAVRGDPLADIKATEQVIFVMKGGKIYRNEVE
modifications: exemplary polypeptide
Q: With B3 as the molecule, how does the “Specific OTA detoxification activities in U/g at pH 6.0” value [1] read?
A: The value was roughly 19 U/g.

Q: What about the “Specific OTA detoxification activities in U/g at pH 7.5” value [1] of the same molecule?
A: Its value is “approximately 32 U/g”.

Q: And the “T50 (temperature range in which 50% of the initial activity was lost after the incubation)” value [2]?
A: The value was 85-90 °C.

B4: 34 (protein)
chain: MELAIRNGIVFNGKEIIGKTNIYVREGKIVEVSREDHSAKMEIDAKDMFVMPGLIDAHIHLSGIKGGSLLKIMFEKPEYRVLRAAKWLEKLLLAGFTTVRDCGETVSLALKRALNDGIIGGPKVIAAGKPITQTFGHGELSHDVPLEFSKTMSFSEFCDGMESCIHAARKVLRDGADFIKIFATGGVLSQRDRPEHPQLSYEEIRAIVNEAEKVNTYVAAHAHGDRGARIAIEAGVKTLEHGTLLKDETLKLMKEKNVTLTPTLTIQELIFKYGKQIGVDEWGLQKITSVRENIANVVRKAKEYGVTIISGTDLGFETGLEEIDMGKNWMETVLLVERGGLSPIEALRASTYNAAMAIGINAGVIEIGKDADIIIINGDPTLNVREISKITHVIKNGKLTVENKSIKG
modifications: exemplary polypeptide
Q: For B4, which “T50 (temperature at which 50% of the initial activity was maintained)” value [2] is on record?
A: Its value is greater than 95 °C.

B5: 74 (protein)
chain: MTTRTRILTAFLSLLAANACAADAAPAAPHTVVLRAARMFDGASGKLVDHPQLTIVGNKIVRIAQGDKAEVPAGAEVVDLGDATLLPGFIDAHVHLSGQSSDNWYGDFFDNMMRFPAEQALYGAYYARITLEAGFTSVRDVGSTDWVALGLRNAIDAGKVPGPRMLVSNYLVGSTGGHADQDPIPPHKLPLAGPLQGVCNGPEECRAAVRYQIKYGANVIKFMPSGGVLSLSDPVDAPELSQDEMNAVIGESHAWGRKVAAHAHGDKAAKMAVAAGVDSIEHGSFIEDDTLRAMKAKNVYLVPTISAIAHVEEKIGTFPPVIAEKGRAAAAHLRQTFRHAVQIGVPIALGTDAGVGAHGSNAREFRYMVENGLTPAQALLAGTANAARLLGTFDRVGTLEAGKLADVVAVPGNPIADITVTERPLFVMKDGVVVRRDAVR
modifications: exemplary polypeptide
Q: For B5, which “T50 (temperature at which 50% of the initial activity was maintained)” value [2] is on record?
A: Its value is less than 63.2 °C.

B6: 79 (protein)
chain: MTTRTRILTAFLSLLAANACAADAAPAAPHTVVLRAARMFDGASGKLVDHPQLTIVGNKIVRIAQGDKAEVPAGAEVVDLGDATLLPGFIDAHVHLSGQSSDNWYGDFFDNMMRFPAEQALYGAYYARITLEAGFTSVRDVGSTDWVALGLRNAIDAGKVPGPRMLVSNYAVGSTGGHADQDPIPPHKLPLAGPLQGVCNGPEECRAAVRYQIKYGANVIKFMPSGGVLSLSDPVDAPELSQDEMNAVIGESHAWGRKVAAHAHGDKAAKMAVAAGVDSIEHGSFIEDDTLRAMKAKNVYLVPTISGIAHVEEKIGTFPPVIAEKGRAAAAHLRQTFRHAVQIGVPIALGTDAGTGAHGSNAREFRYMVENGLTPAQALLAGTANAARLLGTFDRVGTLEAGKLADVVAVPGNPIADITVTERPLFVMKDGVVVRRDAVR
modifications: exemplary polypeptide
Q: With B6 as the molecule, how does the “T50 (temperature at which 50% of the initial activity was maintained)” value [2] read?
A: The value was 70.7-72.6 °C.

B7: 75 (protein)
chain: MTTRTRILTAFLSLLAANACAADAAPAAPHTVVLRAARMFDGASGKLVDHPQLTIVGNKIVRIAQGDKAEVPAGAEVVDLGDATLLPGFIDAHVHLSGQSSDNWYGDFFDNMMRFPAEQALYGAYYARITLEAGFTSVRDVGSTDWVALGLRNAIDAGKVPGPRMLVSNYAVGSTGGQADQDPIPPHKLPLAGPLQGVCNGPEECRAAVRYQIKYGANVIKFMPSGGVLSLSDPVDAPELSQDEMNAVIGESHAWGRKVAAHAHGDKAAKMAVAAGVDSIEHGSFIEDDTLRAMKAKNVYLVPTISAIAHVEEKIGTFPPVIAEKGRAAAAHLRQTFRHAVQIGVPIALGTDAGVGAHGSNAREFRYMVENGLTPAQALLAGTANAARLLGTFDRVGTLEAGKLADVVAVPGNPIADITVTERPLFVMKDGVVVRRDAVR
modifications: exemplary polypeptide
Q: Which “T50 (temperature at which 50% of the initial activity was maintained)” value [2] does the source give for B7 here?
A: The value was 74.4-77.0 °C.

B8: 78 (protein)
chain: MTTRTRILTAFLSLLAANACAADAAPAAPHTVVLRAARMFDGASGKLVDHPQLTIVGNKIVRIAQGDKAEVPAGAEVVDLGDATLLPGFIDAHVHLSGQSSDNWYGDFFDNMMRFPAEQALYGAYYARITLEAGFTSVRDVGSTDWVALGLRNAIDAGKVPGPRMLVSNYAVGSTGGHADQDPIPPHKLPLAGPLQGVCNGPEECRAAVRYQIKYGANVIKFMPSGGVLSLSDPVDAPELSQDEMNAVIGESHAWGRKVAAHAHGDKAAKMAVAAGVDSIEHGSFIEDDTLRAMKAKNVYLVPTISGIAHTEEKIGTFPPVIAEKGRAAAAHLRQTFRHAVQIGVPIALGTDAGVGAHGSNAREFRYMVENGLTPAQALLAGTANAARLLGTFDRVGTLEAGKLADVVAVPGNPIADITVTERPLFVMKDGVVVRRDAVR
modifications: exemplary polypeptide
Q: For B8, which “T50 (temperature at which 50% of the initial activity was maintained)” value [2] is on record?
A: Its value is 68.8-70.7 °C.

B9: SEQ ID NO: 336: another exemplary OTA-hydrolyzing polypeptide, amidohydrolase family; mature, processed species of SEQ ID NO: 337 (protein)
chain: VPAPPRPAVLKAARIFDSVSGHLEEPGLVVVAGAKIQAVGSDARIPDNAQVIDLGDATLMPGFIDAHVHLSSEMSDKWYEDWYKSMVRFPAEQALYGAHYAKATLEAGITTVRDLGSSDYISLGLRNAIKAGQIPGPRMLVANYAIGSTGGHADQDPVPPQRLAPAGPIQGVCNGPDECRAAVRYQLKYGADVIKFMPSGGVLSLSDPVDTPELTQEEMNAIVSEAHAWKRKVAAHCHGDRAAKMAIAAGVDSIEHGTFLQDDTLQEMKDKHIYLVPTLSAGYWVGLKADTYPPVIAEKARAASRQMQKMFQRAVKIGVPIAMGTDAGVEPHGQNAREFSLMTTNGLPPAQALLAATAKGADLLGISDQTGTLQPGKYADIVAVGGNPLLDIKATEHPLLVMKEGVIYVGGK
modifications: exemplary polypeptide
Q: What does the source list for B9?
A: Specific OTA detoxification activities in U/g at pH 6.0 [1]: ~22 U/g; Specific OTA detoxification activities in U/g at pH 7.5 [1]: approximately 40 U/g; T50 (temperature range in which 50% of the initial activity was lost after the incubation) [2]: 90-95 °C
